Columns and labels:
Assay in all cases: cell-based or functional assay
human IGF-1R (human) = human IGF-1R (human) (UniProt P08069)
human IGF-2 (human) = human IGF-2 (human) (UniProt P01344)
human IGF-1 (human) = human IGF-1 (human) (UniProt P05019)
Chain of human IGF-1 (human) (P05019 49-118): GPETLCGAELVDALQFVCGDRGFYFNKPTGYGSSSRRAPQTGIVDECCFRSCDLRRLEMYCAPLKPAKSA

Chain of human IGF-1R (human) (P08069 31-1367): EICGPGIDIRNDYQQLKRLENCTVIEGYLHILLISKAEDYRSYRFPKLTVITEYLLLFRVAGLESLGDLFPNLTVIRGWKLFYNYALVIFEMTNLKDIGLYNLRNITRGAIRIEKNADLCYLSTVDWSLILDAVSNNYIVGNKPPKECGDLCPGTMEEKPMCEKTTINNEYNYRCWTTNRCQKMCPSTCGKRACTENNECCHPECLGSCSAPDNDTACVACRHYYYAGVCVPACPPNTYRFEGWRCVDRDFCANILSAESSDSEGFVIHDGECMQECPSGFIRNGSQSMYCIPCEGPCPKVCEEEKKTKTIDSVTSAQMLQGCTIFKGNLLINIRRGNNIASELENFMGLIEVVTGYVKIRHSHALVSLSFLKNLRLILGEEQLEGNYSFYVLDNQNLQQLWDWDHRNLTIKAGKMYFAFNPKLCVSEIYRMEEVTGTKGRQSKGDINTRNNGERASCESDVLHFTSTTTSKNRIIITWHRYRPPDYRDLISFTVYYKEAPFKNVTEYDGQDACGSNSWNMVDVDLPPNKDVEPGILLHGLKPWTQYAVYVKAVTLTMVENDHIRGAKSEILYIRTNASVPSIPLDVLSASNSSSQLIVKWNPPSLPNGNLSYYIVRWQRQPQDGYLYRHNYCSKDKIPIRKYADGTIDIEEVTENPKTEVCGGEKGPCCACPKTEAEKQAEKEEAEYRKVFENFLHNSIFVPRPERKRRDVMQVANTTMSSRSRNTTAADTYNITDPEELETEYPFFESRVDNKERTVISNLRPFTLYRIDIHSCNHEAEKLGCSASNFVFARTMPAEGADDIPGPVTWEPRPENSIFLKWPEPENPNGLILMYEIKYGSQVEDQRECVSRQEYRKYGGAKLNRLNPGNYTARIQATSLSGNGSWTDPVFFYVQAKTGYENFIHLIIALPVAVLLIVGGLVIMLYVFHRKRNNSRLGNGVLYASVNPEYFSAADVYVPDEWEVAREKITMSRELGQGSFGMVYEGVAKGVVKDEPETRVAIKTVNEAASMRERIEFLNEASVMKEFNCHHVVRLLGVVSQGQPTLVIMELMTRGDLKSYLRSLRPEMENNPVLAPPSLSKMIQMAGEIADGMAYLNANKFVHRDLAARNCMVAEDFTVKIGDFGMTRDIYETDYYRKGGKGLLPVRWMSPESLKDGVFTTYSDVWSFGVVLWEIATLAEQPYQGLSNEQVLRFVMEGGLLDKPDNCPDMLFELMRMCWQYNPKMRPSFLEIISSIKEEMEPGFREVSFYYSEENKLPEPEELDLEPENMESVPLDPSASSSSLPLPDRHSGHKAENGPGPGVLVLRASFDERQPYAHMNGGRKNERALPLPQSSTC
Chain of human IGF-2 (human) (P01344 25-91 limits assumed): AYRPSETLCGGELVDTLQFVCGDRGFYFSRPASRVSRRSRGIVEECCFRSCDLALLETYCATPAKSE

% Remaining Phosphorylation at 15 µg/mL (100 nM) Inhibitor; IGF-1 (20 ng/mL) induced IGF-1R phosphorylation (human IGF-1R (human)) | % Remaining Phosphorylation at 15 µg/mL (100 nM) Inhibitor; IGF-2 (100 ng/mL) induced IGF-1R phosphorylation (human IGF-1R (human)) | % Remaining Phosphorylation at 15 µg/mL (100 nM) Inhibitor; human serum (20%) induced IGF-1R phosphorylation (human IGF-1R (human)) | IC50 of IGF-1 (20 ng/mL) induced IGF-1R phosphorylation, cell based ELISA (human IGF-1R (human)) | IC50 of IGF-2 (100 ng/mL) induced IGF-1R phosphorylation, cell based ELISA (human IGF-1R (human)) | IC50 of human serum (20%) induced IGF-1R phosphorylation, cell based ELISA (human IGF-1R (human)) | % Remaining Phosphorylation at 15 µg/mL (100 nM) Inhibitor; IGF-2 (100 ng/mL) induced IGF-1R phosphorylation (human IGF-2 (human)) | % Remaining Phosphorylation at 15 µg/mL (100 nM) Inhibitor; IGF-2 (100 ng/mL) induced IR-A phosphorylation (human IGF-2 (human)) | IC50 of IGF-2 (100 ng/mL) induced IGF-1R phosphorylation, cell based ELISA (human IGF-2 (human)) | IC50 of IGF-2 (100 ng/mL) induced IR-A phosphorylation, cell based ELISA (human IGF-2 (human)) | % Remaining Phosphorylation at 15 µg/mL (100 nM) Inhibitor; IGF-1 (20 ng/mL) induced IGF-1R phosphorylation (human IGF-1 (human)) | Substance
35% | 76% | 120% | 1.16 µg/mL | > 15 µg/mL | > 15 µg/mL | – | – | – | – | – | IGF-1R antibody αIR-3 (Calbiochem, No. GR11L)
– | – | – | – | – | – | 108% | 109% | > 15 µg/mL | > 15 µg/mL | 108% | Control IgG (antibody)

— patent publication US20150010574A1
